Conditions in all cases: both partners purified
The target in test [1] is T1, GINS tetramer (Sld5, Psf1, Psf2, Psf3), S. cerevisiae (S. cerevisiae, UniProt Q03406 1-294; Q12488 1-208; P40359 1-213; Q12146 1-194).
T1 construct: Sld5, GINS subunit, S. cerevisiae; Psf1, GINS subunit, S. cerevisiae; Psf2, GINS subunit, S. cerevisiae; Psf3, GINS subunit, S. cerevisiae; pJL005 with TwinStrep-Psf3; also called tetrameric GINS complex; source: purified as previously described (Yeeles et al, 2015; Lewis et al, 2022); copies: + + +
T1 sequence (looked up) 1: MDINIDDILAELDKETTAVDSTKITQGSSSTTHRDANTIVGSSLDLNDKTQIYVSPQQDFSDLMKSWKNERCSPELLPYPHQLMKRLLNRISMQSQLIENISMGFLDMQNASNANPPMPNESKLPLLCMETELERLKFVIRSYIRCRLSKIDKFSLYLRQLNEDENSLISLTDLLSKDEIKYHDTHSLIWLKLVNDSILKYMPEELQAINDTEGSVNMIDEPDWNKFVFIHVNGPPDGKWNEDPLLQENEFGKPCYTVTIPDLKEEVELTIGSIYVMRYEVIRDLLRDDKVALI
T1 sequence (looked up) 2: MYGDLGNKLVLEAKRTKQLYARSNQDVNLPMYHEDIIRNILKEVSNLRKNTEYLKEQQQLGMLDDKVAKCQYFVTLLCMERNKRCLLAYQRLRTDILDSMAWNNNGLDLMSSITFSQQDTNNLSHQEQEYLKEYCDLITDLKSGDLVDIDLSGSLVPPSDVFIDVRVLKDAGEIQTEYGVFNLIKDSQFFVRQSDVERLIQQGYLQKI
T1 sequence (looked up) 3: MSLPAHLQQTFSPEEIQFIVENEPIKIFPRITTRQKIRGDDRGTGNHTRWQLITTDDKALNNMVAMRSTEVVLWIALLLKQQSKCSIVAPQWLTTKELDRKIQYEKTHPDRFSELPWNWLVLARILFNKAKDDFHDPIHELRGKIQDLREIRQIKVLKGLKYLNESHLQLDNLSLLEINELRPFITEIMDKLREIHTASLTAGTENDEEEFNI
T1 sequence (looked up) 4: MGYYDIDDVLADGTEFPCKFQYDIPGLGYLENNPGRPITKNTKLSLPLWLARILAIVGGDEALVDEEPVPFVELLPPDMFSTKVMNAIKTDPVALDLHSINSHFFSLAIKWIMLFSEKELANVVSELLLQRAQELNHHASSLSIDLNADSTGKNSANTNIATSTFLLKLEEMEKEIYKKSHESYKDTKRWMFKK
In words: co-IP; purified proteins mixed: 10 nM FLAG-Rrm3 with 15 nM GINS, 10 min on ice; anti-FLAG M2 magnetic beads; 25 mM Hepes-KOH pH 7.6, 200 mM KOAc, 0.02% NP-40-S, 0.1 mg/mL BSA, 1 mM DTT, 10 mM Mg(OAc)2; immunoblotting. On the technique in general: In western blotting, separated proteins are transferred to a membrane and probed.

The target of test [2] is T2, DNA polymerase ε (Pol2, Dpb2, Dpb3, Dpb4), S. cerevisiae (S. cerevisiae, UniProt P21951 1-2222; P24482 1-689; P27344 1-201; Q04603 1-196).
T2 construct: Pol2, catalytic subunit of DNA polymerase ε, S. cerevisiae; Dpb2, second largest subunit of DNA polymerase ε, S. cerevisiae; Dpb3, subunit of DNA polymerase ε, S. cerevisiae; Dpb4, subunit of DNA polymerase ε, S. cerevisiae (DPB4-TEV-CBP); also called Polε; Pol ε; source: S. cerevisiae strain yAJ2, purified as previously described (Yeeles et al, 2015); copies: + + +
In words: co-IP; purified proteins mixed: 10 nM FLAG-Rrm3 with 15 nM Pol ε, 10 min on ice; anti-FLAG M2 magnetic beads; 25 mM Hepes-KOH pH 7.6, 400 mM KOAc, 0.02% NP-40-S, 0.1 mg/mL BSA, 1 mM DTT, 10 mM Mg(OAc)2; immunoblotting.

Test [3] addresses T3, CMGE (budding yeast CMG helicase, Cdc45-Mcm2-7-GINS, together with DNA polymerase ε) (S. cerevisiae, UniProt P29469 1-868; P24279 1-971; P30665 1-933; P29496 1-775; P53091 1-1017; P38132 …).
T3 construct: Mcm2, S. cerevisiae, subunit of CMG; Mcm3, S. cerevisiae, subunit of CMG (CBP-TEV-MCM3); Mcm4, S. cerevisiae, subunit of CMG; Mcm5, S. cerevisiae, subunit of CMG; Mcm6, S. cerevisiae, subunit of CMG; Mcm7, S. cerevisiae, subunit of CMG; Cdc45, S. cerevisiae, subunit of CMG (CDC45iFLAG2, internal FLAG tag; detected by anti-FLAG immunoblotting); Sld5, S. cerevisiae, GINS subunit of CMG …
In words: co-IP; purified proteins mixed: 1–10 nM Rrm3/Rrm3N-BacPif1/BacPif1 with 15 nM CMG and 30 nM Pol ε, 10 min on ice; anti-Sld5 beads, 30 min 4 °C; 25 mM Hepes-KOH pH 7.6, 400 mM KOAc, 0.02% NP-40-S, 0.1 mg/mL BSA, 1 mM DTT, 10 mM Mg(OAc)2; immunoblotting.

Residue numbers refer to the chain shown, from its start. Names may count otherwise.

T2 sequence (P21951 whole entry, chain 1 of 4): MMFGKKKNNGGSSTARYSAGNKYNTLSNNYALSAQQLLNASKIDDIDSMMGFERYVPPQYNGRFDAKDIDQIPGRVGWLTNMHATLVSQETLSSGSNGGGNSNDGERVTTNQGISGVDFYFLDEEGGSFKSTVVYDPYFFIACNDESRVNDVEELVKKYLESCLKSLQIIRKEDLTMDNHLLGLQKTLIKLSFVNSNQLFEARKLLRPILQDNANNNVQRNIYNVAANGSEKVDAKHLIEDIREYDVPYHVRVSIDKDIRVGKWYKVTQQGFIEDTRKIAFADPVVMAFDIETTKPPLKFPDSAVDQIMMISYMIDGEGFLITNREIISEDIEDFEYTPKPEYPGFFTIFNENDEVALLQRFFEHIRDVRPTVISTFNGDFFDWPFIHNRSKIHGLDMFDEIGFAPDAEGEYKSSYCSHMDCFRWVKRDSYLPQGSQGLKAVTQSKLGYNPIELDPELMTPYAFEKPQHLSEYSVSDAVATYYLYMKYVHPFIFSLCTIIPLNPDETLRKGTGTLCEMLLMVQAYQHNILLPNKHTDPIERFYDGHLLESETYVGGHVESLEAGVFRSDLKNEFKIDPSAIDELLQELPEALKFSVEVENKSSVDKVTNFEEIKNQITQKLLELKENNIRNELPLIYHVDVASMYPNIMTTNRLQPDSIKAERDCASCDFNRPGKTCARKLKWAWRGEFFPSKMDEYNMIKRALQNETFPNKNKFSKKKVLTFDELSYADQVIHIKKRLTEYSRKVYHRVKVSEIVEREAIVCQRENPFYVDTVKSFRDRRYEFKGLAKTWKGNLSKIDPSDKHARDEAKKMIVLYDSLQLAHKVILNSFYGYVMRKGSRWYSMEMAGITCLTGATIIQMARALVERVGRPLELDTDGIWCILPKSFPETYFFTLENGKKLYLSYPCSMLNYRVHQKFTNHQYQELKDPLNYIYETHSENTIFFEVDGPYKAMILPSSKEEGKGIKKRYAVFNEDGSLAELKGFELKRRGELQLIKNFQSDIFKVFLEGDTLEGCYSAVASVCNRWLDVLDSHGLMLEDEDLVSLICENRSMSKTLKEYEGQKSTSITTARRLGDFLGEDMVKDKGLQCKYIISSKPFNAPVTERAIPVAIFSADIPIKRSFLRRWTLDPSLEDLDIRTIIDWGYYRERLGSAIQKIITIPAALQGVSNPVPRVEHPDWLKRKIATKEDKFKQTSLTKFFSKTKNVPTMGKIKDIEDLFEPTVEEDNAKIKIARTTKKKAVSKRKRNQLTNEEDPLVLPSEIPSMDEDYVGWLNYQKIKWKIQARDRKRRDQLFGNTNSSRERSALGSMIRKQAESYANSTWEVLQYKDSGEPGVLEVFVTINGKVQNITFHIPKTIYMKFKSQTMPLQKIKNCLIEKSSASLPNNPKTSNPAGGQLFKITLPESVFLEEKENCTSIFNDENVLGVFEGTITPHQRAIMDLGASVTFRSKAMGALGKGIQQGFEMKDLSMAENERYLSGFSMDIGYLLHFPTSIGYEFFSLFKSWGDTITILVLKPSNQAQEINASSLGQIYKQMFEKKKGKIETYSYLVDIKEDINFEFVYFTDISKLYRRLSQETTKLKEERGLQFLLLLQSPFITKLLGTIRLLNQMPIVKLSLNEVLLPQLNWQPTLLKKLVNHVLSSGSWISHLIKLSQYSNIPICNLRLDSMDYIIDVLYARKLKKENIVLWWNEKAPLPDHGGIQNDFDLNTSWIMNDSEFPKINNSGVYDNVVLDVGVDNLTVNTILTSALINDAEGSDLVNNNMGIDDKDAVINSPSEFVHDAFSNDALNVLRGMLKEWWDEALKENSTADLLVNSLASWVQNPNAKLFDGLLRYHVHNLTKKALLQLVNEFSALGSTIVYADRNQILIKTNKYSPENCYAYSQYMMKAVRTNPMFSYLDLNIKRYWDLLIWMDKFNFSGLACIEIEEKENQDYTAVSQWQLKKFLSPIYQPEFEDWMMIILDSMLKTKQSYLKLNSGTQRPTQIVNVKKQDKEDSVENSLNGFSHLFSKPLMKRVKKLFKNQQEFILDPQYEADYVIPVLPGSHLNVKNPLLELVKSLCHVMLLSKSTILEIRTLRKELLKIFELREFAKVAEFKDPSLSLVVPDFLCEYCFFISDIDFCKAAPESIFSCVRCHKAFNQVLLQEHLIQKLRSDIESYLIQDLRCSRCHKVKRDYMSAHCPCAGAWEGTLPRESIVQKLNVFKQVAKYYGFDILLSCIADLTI
T2 sequence (P24482 whole entry, chain 2 of 4): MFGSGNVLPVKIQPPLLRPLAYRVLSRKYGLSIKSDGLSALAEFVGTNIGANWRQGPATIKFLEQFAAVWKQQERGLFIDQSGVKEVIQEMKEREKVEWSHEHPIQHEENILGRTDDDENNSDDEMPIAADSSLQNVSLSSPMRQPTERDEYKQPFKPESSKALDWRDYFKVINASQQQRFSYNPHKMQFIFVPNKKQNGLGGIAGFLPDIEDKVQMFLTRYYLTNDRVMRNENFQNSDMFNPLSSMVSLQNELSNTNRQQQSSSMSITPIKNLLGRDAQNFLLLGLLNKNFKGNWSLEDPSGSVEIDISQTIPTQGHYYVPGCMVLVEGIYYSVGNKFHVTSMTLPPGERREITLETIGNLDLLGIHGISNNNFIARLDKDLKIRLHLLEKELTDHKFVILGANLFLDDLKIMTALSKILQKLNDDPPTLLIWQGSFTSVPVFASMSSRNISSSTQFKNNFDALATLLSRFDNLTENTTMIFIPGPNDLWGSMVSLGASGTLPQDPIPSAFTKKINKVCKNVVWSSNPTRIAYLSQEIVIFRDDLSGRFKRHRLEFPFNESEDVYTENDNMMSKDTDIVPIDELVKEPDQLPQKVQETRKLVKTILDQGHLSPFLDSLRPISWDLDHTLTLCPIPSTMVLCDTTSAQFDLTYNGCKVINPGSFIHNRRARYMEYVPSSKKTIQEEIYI
T2 sequence (P27344 whole entry, chain 3 of 4): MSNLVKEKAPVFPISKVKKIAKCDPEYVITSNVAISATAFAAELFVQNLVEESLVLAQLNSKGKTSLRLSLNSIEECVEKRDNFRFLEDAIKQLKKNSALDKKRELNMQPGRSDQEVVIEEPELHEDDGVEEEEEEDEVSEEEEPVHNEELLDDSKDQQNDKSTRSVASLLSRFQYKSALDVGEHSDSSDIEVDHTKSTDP
T2 sequence (Q04603 whole entry, chain 4 of 4): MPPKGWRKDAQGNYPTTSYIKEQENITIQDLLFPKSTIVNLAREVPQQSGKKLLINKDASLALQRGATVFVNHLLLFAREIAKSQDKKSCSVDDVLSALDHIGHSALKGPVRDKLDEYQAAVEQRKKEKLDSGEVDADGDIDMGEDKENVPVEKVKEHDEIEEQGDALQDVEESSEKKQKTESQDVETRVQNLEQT

B1: Rrm3 (wild-type, FLAG-tagged) (enzyme, S. cerevisiae, UniProt P38766 1-723, looked up)
chain: MFRSHASGNKKQWSKRSSNGSTPAASASGSHAYRQQTLSSFFMGCGKKSAAASKNSTTIIDLESGDEGNRNITAPPRPRLIRNNSSSLFSQSQGSFGDDDPDAEFKKLVDVPRLNSYKKSSRSLSMTSSLHKTASASTTQKTYHFDEDETLREVTSVKSNSRQLSFTSTINIEDSSMKLSTDSERPAKRSKPSMEFQGLKLTVPKKIKPLLRKTVSNMDSMNHRSASSPVVLTMEQERVVNLIVKKRTNVFYTGSAGTGKSVILQTIIRQLSSLYGKESIAITASTGLAAVTIGGSTLHKWSGIGIGNKTIDQLVKKIQSQKDLLAAWRYTKVLIIDEISMVDGNLLDKLEQIARRIRKNDDPFGGIQLVLTGDFFQLPPVAKKDEHNVVKFCFESEMWKRCIQKTILLTKVFRQQDNKLIDILNAIRYGELTVDIAKTIRNLNRDIDYADGIAPTELYATRREVELSNVKKLQSLPGDLYEFKAVDNAPERYQAILDSSLMVEKVVALKEDAQVMMLKNKPDVELVNGSLGKVLFFVTESLVVKMKEIYKIVDDEVVMDMRLVSRVIGNPLLKESKEFRQDLNARPLARLERLKILINYAVKISPHKEKFPYVRWTVGKNKYIHELMVPERFPIDIPRENVGLERTQIPLMLCWALSIHKAQGQTIQRLKVDLRRIFEAGQVYVALSRAVTMDTLQVLNFDPGKIRTNERVKDFYKRLETLK
notes: Rrm3 Pif1-family 5'-3' DNA helicase, S. cerevisiae; helicase domain printed as residues 230-723; Gene codon optimised for expression; a TEV site lies between the 3FLAG tag and Rrm3; also called WT Rrm3; full-length Rrm3; source: S. cerevisiae strain yTDK9, purified (anti-FLAG M2 resin, HiTrap heparin); not shown: 3FLAG, N-terminal, kept
As for B1, the binding result in test [1], in test [2] and in test [3] was “binds” in each case.

B2: Rrm3-2E (Rrm3 K118E, R122E) (enzyme, S. cerevisiae, UniProt P38766 1-723, looked up)
chain: B1 chain with K118E, R122E
notes: Built in the wild-type expression plasmid pTDK15 (pOO8); also called 3FLAG-TEV-RRM3-2E; source: S. cerevisiae strain yOO4, purified (anti-FLAG M2 resin, HiTrap heparin); not shown: 3FLAG, N-terminal, kept
Regarding B2, the binding result in test [2] and in test [3] was “binds” throughout.

Source of the values: publication PMC11405395 (The EMBO Journal, 2024).
